Values joined by “and” are separate entries in the source; they are usually repeats but may differ in a detail not shown here. Equal entries are not always repeated.
Molecular target: T1, canine NGF tagged at the C-terminus with the Flag tag (canine, UniProt A0A8I3PYI3 122-241)
T1 construct: mature; Expressed with baculovirus technology; also called feline NGF (processed form identical)
Assay: SPR off-rate screen, Fab-SASA on BSA chip

T1 sequence (A0A8I3PYI3 entry or part of it): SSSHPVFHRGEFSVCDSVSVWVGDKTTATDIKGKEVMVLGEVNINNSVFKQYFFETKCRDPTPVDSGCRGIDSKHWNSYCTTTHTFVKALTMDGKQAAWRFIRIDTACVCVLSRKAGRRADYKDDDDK

Row | Binder | Kd | Ratio WT-kd/clone-kd | koff | kon
1 | felinized clone 101 Fab-SASA variant D104E (VH) (Fab, V domains shown, not shown: small tags and cut ends) VH: DVQLVESGGDLVKPGGSLRLTCVASGLSLTSSSMSWVRQAPGKGLQWVSTIYSNGGTYYTDSVKGRFTISKDNAENTLYLQMNNLKTEDTATYYCASIYYYDAEYLHWYFDFWGQGALVTVSS VL: EIQMTQSPTSLSASVGDRVTITCRASEGISNNLSWYQQTPGKAPKLLIYATSNLHSGVPSRFSGSGSGTDFTLTISSLQPEDFATYYCQQGYKWPLTFGGGTKLEITR | 1.8 nM | 2.21 | 0.000426 s⁻¹ | 237000 M⁻¹ s⁻¹
2 | felinized clone 101 Fab-SASA variant D104Q (VH) (Fab, V domains shown, not shown: small tags and cut ends) VH: DVQLVESGGDLVKPGGSLRLTCVASGLSLTSSSMSWVRQAPGKGLQWVSTIYSNGGTYYTDSVKGRFTISKDNAENTLYLQMNNLKTEDTATYYCASIYYYDAQYLHWYFDFWGQGALVTVSS VL: EIQMTQSPTSLSASVGDRVTITCRASEGISNNLSWYQQTPGKAPKLLIYATSNLHSGVPSRFSGSGSGTDFTLTISSLQPEDFATYYCQQGYKWPLTFGGGTKLEITR | 2.17 nM | 1.97 | 0.000478 s⁻¹ | 220000 M⁻¹ s⁻¹
3 | felinized clone 101 Fab-SASA variant D104K (VH) (Fab, V domains shown, not shown: small tags and cut ends) VH: DVQLVESGGDLVKPGGSLRLTCVASGLSLTSSSMSWVRQAPGKGLQWVSTIYSNGGTYYTDSVKGRFTISKDNAENTLYLQMNNLKTEDTATYYCASIYYYDAKYLHWYFDFWGQGALVTVSS VL: EIQMTQSPTSLSASVGDRVTITCRASEGISNNLSWYQQTPGKAPKLLIYATSNLHSGVPSRFSGSGSGTDFTLTISSLQPEDFATYYCQQGYKWPLTFGGGTKLEITR | 5.45 nM | 2.84 | 0.000332 s⁻¹ | 60900 M⁻¹ s⁻¹
4 | felinized clone 101 Fab-SASA variant D104N (VH) (Fab, V domains shown, not shown: small tags and cut ends) VH: DVQLVESGGDLVKPGGSLRLTCVASGLSLTSSSMSWVRQAPGKGLQWVSTIYSNGGTYYTDSVKGRFTISKDNAENTLYLQMNNLKTEDTATYYCASIYYYDANYLHWYFDFWGQGALVTVSS VL: EIQMTQSPTSLSASVGDRVTITCRASEGISNNLSWYQQTPGKAPKLLIYATSNLHSGVPSRFSGSGSGTDFTLTISSLQPEDFATYYCQQGYKWPLTFGGGTKLEITR | 1.87 nM | 2.11 | 0.000446 s⁻¹ | 239000 M⁻¹ s⁻¹
5 | felinized clone 101 Fab-SASA variant F112N (VH) (Fab, V domains shown, not shown: small tags and cut ends) VH: DVQLVESGGDLVKPGGSLRLTCVASGLSLTSSSMSWVRQAPGKGLQWVSTIYSNGGTYYTDSVKGRFTISKDNAENTLYLQMNNLKTEDTATYYCASIYYYDADYLHWYFDNWGQGALVTVSS VL: EIQMTQSPTSLSASVGDRVTITCRASEGISNNLSWYQQTPGKAPKLLIYATSNLHSGVPSRFSGSGSGTDFTLTISSLQPEDFATYYCQQGYKWPLTFGGGTKLEITR | 1.85 nM | 1.47 | 0.000643 s⁻¹ | 347000 M⁻¹ s⁻¹
6 | felinized clone 101 Fab-SASA variant F112E (VH) (Fab, V domains shown, not shown: small tags and cut ends) VH: DVQLVESGGDLVKPGGSLRLTCVASGLSLTSSSMSWVRQAPGKGLQWVSTIYSNGGTYYTDSVKGRFTISKDNAENTLYLQMNNLKTEDTATYYCASIYYYDADYLHWYFDEWGQGALVTVSS VL: EIQMTQSPTSLSASVGDRVTITCRASEGISNNLSWYQQTPGKAPKLLIYATSNLHSGVPSRFSGSGSGTDFTLTISSLQPEDFATYYCQQGYKWPLTFGGGTKLEITR | 1.41 nM and 2.41 nM |  | 0.000399 s⁻¹ and 0.000708 s⁻¹ | 284000 M⁻¹ s⁻¹ and 294000 M⁻¹ s⁻¹
7 | felinized clone 101 Fab-SASA variant F112H (VH) (Fab, V domains shown, not shown: small tags and cut ends) VH: DVQLVESGGDLVKPGGSLRLTCVASGLSLTSSSMSWVRQAPGKGLQWVSTIYSNGGTYYTDSVKGRFTISKDNAENTLYLQMNNLKTEDTATYYCASIYYYDADYLHWYFDHWGQGALVTVSS VL: EIQMTQSPTSLSASVGDRVTITCRASEGISNNLSWYQQTPGKAPKLLIYATSNLHSGVPSRFSGSGSGTDFTLTISSLQPEDFATYYCQQGYKWPLTFGGGTKLEITR | 1.95 nM | 1.48 | 0.000639 s⁻¹ | 328000 M⁻¹ s⁻¹

Reference: US20250011410A1 (INVETX, published 2025)
